Values belong to the binder of their own block, whether it stands above or below them.
Target: recombinant human HGF (R&D Systems, Catalog No. 294-HGN-025) (human, UniProt P14210 32-728)
Assay: SPR

recombinant human HGF (R&D Systems, Catalog No. 294-HGN-025), sequence (P14210 32-728): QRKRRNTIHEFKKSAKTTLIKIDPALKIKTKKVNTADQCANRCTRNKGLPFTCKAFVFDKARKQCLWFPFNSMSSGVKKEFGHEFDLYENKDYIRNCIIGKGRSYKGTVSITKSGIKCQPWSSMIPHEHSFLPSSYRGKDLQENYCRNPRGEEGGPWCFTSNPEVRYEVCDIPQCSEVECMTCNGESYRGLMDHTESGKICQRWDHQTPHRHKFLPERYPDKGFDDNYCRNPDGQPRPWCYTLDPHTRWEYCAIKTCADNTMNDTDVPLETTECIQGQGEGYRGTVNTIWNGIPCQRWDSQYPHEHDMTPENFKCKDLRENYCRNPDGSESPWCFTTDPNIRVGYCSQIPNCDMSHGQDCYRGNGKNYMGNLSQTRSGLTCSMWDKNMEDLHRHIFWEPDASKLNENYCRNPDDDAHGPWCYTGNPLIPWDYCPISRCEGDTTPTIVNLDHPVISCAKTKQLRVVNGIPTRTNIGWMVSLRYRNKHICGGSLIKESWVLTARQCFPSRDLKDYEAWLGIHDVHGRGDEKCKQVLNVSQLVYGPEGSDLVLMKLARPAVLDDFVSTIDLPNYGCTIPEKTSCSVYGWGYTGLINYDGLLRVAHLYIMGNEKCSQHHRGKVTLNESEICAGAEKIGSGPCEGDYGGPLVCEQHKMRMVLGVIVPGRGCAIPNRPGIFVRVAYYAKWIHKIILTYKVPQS

B1: Hu2B8_Kv1-39.1 / Chimeric 2B8 (antibody, V domains shown)
VH: QVQLQQPGAELVKPGTSVKLSCKASGYTFTTYWMHWVNQRPGQGLEWIGEINPTNGHTNYNEKFKSKATLTVDKSSSTAYMQLSSLTSEDSAVYYCARNYVGSIFDYWGQGTTLTVSS
VL: DIQMTQSPSSLSASVGDRVTITCKASENVVSYVSWYQQKPGKAPKLLIYGASNRNTGVPSRFSGSGSGTDFTLTISSLQPEDFATYYCGQSYNYPYTFGQGTKLEIKR
- Kd: 13.6 pM

B5: Chimeric 2B8 / Hu2B8_Hv1-f.1 (antibody, V domains shown)
VH: EVQLVQSGAEVKKPGATVKISCKVSGYTFTTYWMHWVQQAPGKGLEWMGEINPTNGHTNYNEKFQGRVTITADTSTDTAYMELSSLRSEDTAVYYCATNYVGSIFDYWGQGTLVTVSS
VL: NIVMTQSPKSMSMSVGERVTLSCKASENVVSYVSWYQQKPAQSPKLLIYGASNRNTGVPDRFTGSGSATDFTLTISSVRAEDLADYHCGQSYNYPYTFGGGTRLEIKR
- Kd: 662 pM

B6: Hu2B8_Kv3-15.1 / Hu2B8_Hv1-f.1 (antibody, V domains shown)
VH: B5 VH
VL: EIVMTQSPATLSVSPGERATLSCKASENVVSYVSWYQQKPGQAPRLLIYGASNRNTGIPARFSGSGSGTEFTLTISSLQSEDFAVYYCGQSYNYPYTFGQGTKLEIKR
- Kd: 466 pM

B8: Chimeric 2B8 / Hu2B8_Hv5-a.1 (antibody, V domains shown)
VH: EVQLVQSGAEVKKPGESLRISCKGSGYSFTTYWMHWVRQMPGKGLEWMGEINPTNGHTNYNPSFQGHVTISADKSISTAYLQWSSLKASDTAMYYCARNYVGSIFDYWGQGTLVTVSS
VL: B5 VL
- Kd: 4.4 pM

The remaining binders from weak to strong by Kd, led by results:

- Kd: 294 pM
B9: Hu2B8_Kv1-39.1 / Hu2B8_Hv1-f.1 (antibody, V domains shown)
VH: B5 VH
VL: B1 VL

- Kd: 26.9 pM
B4: Hu2B8_Kv3-15.1 / Hu2B8_Hv5-a.1 (antibody, V domains shown)
VH: B8 VH
VL: B6 VL

- Kd: 14.7 pM
B3: Hu2B8_Kv1-39.1 / Hu2B8_Hv5-a.1 (antibody, V domains shown)
VH: B8 VH
VL: B1 VL

- Kd: 11.6 pM
B7: chimeric 2B8 (antibody, V domains shown)
VH: B1 VH
VL: B5 VL

- Kd: 5.5 pM
B2: Hu2B8_Kv3-15.1 / Chimeric 2B8 (antibody, V domains shown)
VH: B1 VH
VL: B6 VL

Source: patent publication US20100173362A1 (published 2010)
